A word on the Kd: it is the equilibrium constant for the complex coming apart. Read a low Kd as higher affinity. The pKd is −log10 of the Kd, conventionally taken in molar units. A lower pKd goes with a high Kd.

Test [1] has as its target human δ-opioid receptor (pcDNA3.1-human DOR) (human) (UniProt P41143).
Test [2] deals with human μ-opioid receptor (pcDNA3.1-human MOR) (human) (UniProt P35372). As to the kind of experiment: radioligand binding.
Test [3] shares this target.
Test [4] shares this target. The source holds these as a separate data set.

DADLE (peptide) displayed a Gi/o-mediated cAMP inhibition (GloSensor, HEKT cells), pEC50 in test [1] of 9.69.

As for “[D-Ala2, N-MePhe4, Gly-ol]-enkephalin (peptide)”, in test [2], the Kd came to 4.37 nM and the pKd is 8.36. Moreover, the maximal net BRET in the G protein (GoA) dissociation assay in test [3] stood at 0.15. Besides, in test [4], the Gi/o-mediated cAMP inhibition (GloSensor, HEKT cells), pEC50 is 8.65.
